Measured values as given in US20210024620A1.

Assays:
[1] = target: Human CD16a (FcγRIIIa residues 17-208 with C-terminal HPC4 tag and valine at position 158) (human) (UniProt P08637); assay: Biacore SPR, HPC4-tagged FcγRIIIa-V158 captured by anti-HPC4, pH 7.4
[2] = target: biotinylated human FcRn (human) (UniProt P55899); assay: Biacore, biotin-captured hFcRn, pH 6.0
[3] = target: Human CD16a (FcγRIIIa V158) with C-terminal HPC4 tag (human) (UniProt P08637); assay: Biacore, FcγRIIIa V158 captured, relative to WT of the same backbone
[4] = target: biotinylated human FcRn (human) (UniProt P55899); assay: Biacore, pH 7.4, steady state response
mouse FcRn (mouse) = mouse FcRn (mouse) (UniProt Q61559); assay: Biacore, pH 7.4, steady state response
[5] = target: biotinylated cynomolgus FcRn (cynomolgus) (UniProt Q8SPV9); assay: Biacore, pH 7.4, steady state response
[6] = target: biotinylated human FcRn (p51 subunit residues 24-297 with C-terminal Avi-tag; beta2-microglobulin residues 21-119) (human) (UniProt P55899); assay: Biacore SPR, pH 6.0
[7] = target: biotinylated human FcRn (human) (UniProt P55899); assay: Biacore, biotin-captured hFcRn, pH 8.0, 1000 nM antibody
[8] = target: biotinylated human FcRn (human) (UniProt P55899); assay: Biacore, biotin-captured hFcRn, pH 9.0, 1000 nM antibody
[9] = target: biotinylated cynomolgus FcRn (cynomolgus) (UniProt Q8SPV9); assay: Biacore, biotin-captured cFcRn, pH 8.0, 1000 nM antibody
[10] = target: biotinylated cynomolgus FcRn (cynomolgus) (UniProt Q8SPV9); assay: Biacore, biotin-captured cFcRn, pH 6.0
[11] = target: biotinylated cynomolgus FcRn (cynomolgus) (UniProt Q8SPV9); assay: Biacore, biotin-captured cFcRn, pH 8.0
[12] = target: biotinylated human FcRn (p51 subunit residues 24-297 with C-terminal Avi-tag; beta2-microglobulin residues 21-119) (human) (UniProt P55899); assay: Biacore SPR, pH 7.4, steady state
[13] = target: biotinylated cynomolgus FcRn (cynomolgus) (UniProt Q8SPV9); assay: Biacore, biotin-captured cFcRn, pH 9.0, 1000 nM antibody
[14] = target: biotinylated cynomolgus FcRn (cynomolgus) (UniProt Q8SPV9); assay: Biacore, biotin-captured cFcRn, pH 7.4
[15] = target: biotinylated human FcRn (human) (UniProt P55899); assay: Biacore, biotin-captured hFcRn, pH 7.4, 1000 nM antibody
[16] = target: biotinylated human FcRn (human) (UniProt P55899); assay: Biacore, biotin-captured hFcRn, pH 8.0
[17] = target: biotinylated cynomolgus FcRn (cynomolgus) (UniProt Q8SPV9); assay: Biacore, biotin-captured cFcRn, pH 7.4, 1000 nM antibody

biotinylated human FcRn (human), sequence (P55899 24-297 limits assumed, chain 1 of 2): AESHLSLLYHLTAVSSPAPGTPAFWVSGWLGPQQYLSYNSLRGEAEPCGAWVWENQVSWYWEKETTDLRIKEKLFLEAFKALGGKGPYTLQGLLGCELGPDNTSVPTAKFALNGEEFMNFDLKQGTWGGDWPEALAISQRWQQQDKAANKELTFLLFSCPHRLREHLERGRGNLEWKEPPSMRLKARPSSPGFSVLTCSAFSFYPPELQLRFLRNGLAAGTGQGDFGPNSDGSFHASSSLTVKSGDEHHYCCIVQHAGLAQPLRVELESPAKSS
biotinylated human FcRn (human), sequence (P61769 21-119 limits assumed, chain 2 of 2, further chain): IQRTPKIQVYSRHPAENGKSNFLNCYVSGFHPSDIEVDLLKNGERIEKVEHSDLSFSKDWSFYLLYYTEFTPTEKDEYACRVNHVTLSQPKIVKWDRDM
biotinylated human FcRn (p51 subunit residues 24-297 with C-terminal Avi-tag; beta2-microglobulin residues 21-119) (human), sequence (P55899 24-297 limits assumed, chain 1 of 2): as the sequence (P55899 24-297 limits assumed, chain 1 of 2) above
biotinylated human FcRn (p51 subunit residues 24-297 with C-terminal Avi-tag; beta2-microglobulin residues 21-119) (human), sequence (P61769 21-119 limits assumed, chain 2 of 2, further chain): as the sequence (P61769 21-119 limits assumed, chain 2 of 2, further chain) above
Human CD16a (FcγRIIIa residues 17-208 with C-terminal HPC4 tag and valine at position 158) (human), sequence (P08637 17-208 F176V): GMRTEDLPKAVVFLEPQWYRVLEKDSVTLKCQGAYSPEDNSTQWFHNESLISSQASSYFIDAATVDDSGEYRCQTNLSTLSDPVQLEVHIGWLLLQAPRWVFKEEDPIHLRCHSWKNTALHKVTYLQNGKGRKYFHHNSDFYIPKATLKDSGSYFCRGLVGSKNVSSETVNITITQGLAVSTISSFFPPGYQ
Human CD16a (FcγRIIIa V158) with C-terminal HPC4 tag (human), sequence (P08637 17-208 F176V): as above
mouse FcRn (mouse), sequence (Q61559 22-297 limits assumed, chain 1 of 2): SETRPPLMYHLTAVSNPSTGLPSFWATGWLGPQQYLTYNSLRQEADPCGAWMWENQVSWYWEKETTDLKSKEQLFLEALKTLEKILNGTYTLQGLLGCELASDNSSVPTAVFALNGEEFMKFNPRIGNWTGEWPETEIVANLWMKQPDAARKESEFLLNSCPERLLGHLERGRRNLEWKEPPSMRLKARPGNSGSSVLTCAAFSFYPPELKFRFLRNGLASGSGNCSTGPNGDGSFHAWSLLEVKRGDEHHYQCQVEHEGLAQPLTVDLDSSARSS
mouse FcRn (mouse), sequence (P01887 21-119 limits assumed, chain 2 of 2, further chain): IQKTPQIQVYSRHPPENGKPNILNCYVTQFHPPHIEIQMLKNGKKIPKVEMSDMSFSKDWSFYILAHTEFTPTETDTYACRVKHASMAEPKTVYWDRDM

mAb1 YEQF (M252Y/T256E/T307Q/N434F) (antibody)
FcγRIIIa Binding Steady State RU [1]: 226 RU
Kd [2]: 15 nM
koff [2]: 0.0121 s⁻¹
kon [2]: 790000 M⁻¹ s⁻¹

mAb2 DW (T256D/T307W) (antibody)
FcγRIIIa V158 Affinity Fold Change (fold relative to WT) [3]: 1.15
Steady State RU [4]: 18 RU
Steady State RU (mouse FcRn (mouse)): 257 RU
Steady State RU [5]: 15 RU

mAb1 YDWY (M252Y/T256D/T307W/N434Y) (antibody)
FcγRIIIa Binding Steady State RU [1]: 136 RU
Ka [6]: 2.66e+08 M⁻¹
Steady State RU [7]: 281 RU
Steady State RU [8]: 10.4 RU
Steady State RU [9]: 354 RU
Kd [10]: 3.2 nM
Kd [11]: 1500 nM
Steady State Binding, pH 7.4 (RU) [12]: 88.5 RU
Steady State RU [13]: 16 RU
Kd [14]: 49 nM
Kd [2]: 5.2 nM
Steady State RU [15]: 166 RU
Kd [16]: 700 nM
Steady State RU [17]: 178 RU

mAb2 DQ (T256D/T307Q) (antibody)
FcγRIIIa V158 Affinity Fold Change (fold relative to WT) [3]: 1.05
Steady State RU [4]: 14 RU
Steady State RU (mouse FcRn (mouse)): 248 RU
Steady State RU [5]: 11 RU
